In patent publication US20230301998A1 (SANFORD BURNHAM PREBYS MEDICAL DISCOVERY INSTITUTE, published 2023):

Legend:
Test in all cases: Flag IP of Flag-SHARPIN from WM115 lysate, on-bead tryptic digestion, LC/MS-MS
FLNA = molecular target: T1, FLNA (human, UniProt P21333 2-2647, limits assumed)
T1 construct: endogenous protein co-purified from WM115 lysate
Experimental: (§1) To identify SHARPIN-interacting proteins, WM115 cells were transfected with Flag-tagged SHARPIN or control empty plasmid. Cell lysates were prepared using 1% Triton X-100 buffer [50 mM Tris-HCl, pH7.4, 1% (v/v) Triton X-100, 150 mM NaCl, 1 mM EDTA, and protease and phosphatase inhibitor cocktails (Thermo Fisher Scientific)]. Lysates were pre-cleared with protein A/G beads (Santa Cruz Biotechnology) for 1 h at 4° C. followed by immunoprecipitation using FLAG-M2-agarose beads (Sigma-Aldrich) overnight at 4° C. Beads were then washed with lysis buffer and TBS containing lx protease inhibitor cocktail before being subjected to on-bead tryptic digestion followed by mass spectrometry. In Vitro Methylation Assay.

[1] = molecular target: T2, PRMT5 (endogenous, WM115 cells) (human, UniProt O14744 2-637)
T2 construct: endogenous protein co-purified from WM115 lysate; also called Protein arginine methyltransferase 5
T2 sequence (O14744 2-637 limits assumed): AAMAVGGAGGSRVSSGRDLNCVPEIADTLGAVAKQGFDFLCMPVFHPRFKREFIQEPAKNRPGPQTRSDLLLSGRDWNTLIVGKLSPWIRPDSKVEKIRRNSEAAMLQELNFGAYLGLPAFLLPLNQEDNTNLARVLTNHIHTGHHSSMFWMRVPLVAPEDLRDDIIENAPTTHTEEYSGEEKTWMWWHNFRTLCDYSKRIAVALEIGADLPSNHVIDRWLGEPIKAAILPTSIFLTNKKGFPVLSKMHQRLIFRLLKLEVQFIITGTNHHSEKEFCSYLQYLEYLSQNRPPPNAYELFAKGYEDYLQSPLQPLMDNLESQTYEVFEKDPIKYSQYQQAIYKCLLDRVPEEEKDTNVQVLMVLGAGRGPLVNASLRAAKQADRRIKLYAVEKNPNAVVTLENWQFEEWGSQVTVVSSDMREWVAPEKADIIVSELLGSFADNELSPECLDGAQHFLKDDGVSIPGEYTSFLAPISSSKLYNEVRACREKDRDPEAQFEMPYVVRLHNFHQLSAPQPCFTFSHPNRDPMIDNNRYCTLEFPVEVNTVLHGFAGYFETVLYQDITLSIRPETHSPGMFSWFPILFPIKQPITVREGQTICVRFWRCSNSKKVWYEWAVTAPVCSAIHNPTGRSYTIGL
Experimental: as §1

[2] = molecular target: T3, Gamma-interferon-inducible protein 16 (IFI16) (human, UniProt Q16666 1-785)
T3 construct: Endogenous protein in WM115 / A375
T3 sequence: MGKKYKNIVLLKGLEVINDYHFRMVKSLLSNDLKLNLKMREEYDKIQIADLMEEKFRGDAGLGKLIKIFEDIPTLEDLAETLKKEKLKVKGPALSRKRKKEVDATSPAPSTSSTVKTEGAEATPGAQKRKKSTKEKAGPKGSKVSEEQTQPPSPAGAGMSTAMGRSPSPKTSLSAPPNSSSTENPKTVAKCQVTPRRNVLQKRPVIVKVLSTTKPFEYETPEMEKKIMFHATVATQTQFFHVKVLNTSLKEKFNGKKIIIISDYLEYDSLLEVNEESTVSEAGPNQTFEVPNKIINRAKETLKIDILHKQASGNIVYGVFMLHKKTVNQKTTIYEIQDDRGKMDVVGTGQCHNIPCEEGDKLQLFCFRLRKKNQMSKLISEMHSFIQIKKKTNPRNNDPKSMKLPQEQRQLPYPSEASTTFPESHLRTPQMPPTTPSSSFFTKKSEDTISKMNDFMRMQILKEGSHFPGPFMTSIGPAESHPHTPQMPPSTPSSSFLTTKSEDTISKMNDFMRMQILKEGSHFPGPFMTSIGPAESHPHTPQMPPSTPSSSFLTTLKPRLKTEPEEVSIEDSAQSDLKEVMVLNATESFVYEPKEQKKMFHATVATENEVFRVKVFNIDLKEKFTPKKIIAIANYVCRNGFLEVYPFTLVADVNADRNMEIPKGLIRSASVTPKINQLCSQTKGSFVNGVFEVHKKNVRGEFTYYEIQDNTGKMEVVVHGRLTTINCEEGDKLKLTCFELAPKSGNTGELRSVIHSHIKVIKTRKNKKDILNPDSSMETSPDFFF
Experimental: as §1

XRCC5 = molecular target: T4, XRCC5 (human, UniProt P13010 2-732)
T4 construct: endogenous protein co-purified from WM115 lysate
T4 sequence (P13010 2-732 limits assumed): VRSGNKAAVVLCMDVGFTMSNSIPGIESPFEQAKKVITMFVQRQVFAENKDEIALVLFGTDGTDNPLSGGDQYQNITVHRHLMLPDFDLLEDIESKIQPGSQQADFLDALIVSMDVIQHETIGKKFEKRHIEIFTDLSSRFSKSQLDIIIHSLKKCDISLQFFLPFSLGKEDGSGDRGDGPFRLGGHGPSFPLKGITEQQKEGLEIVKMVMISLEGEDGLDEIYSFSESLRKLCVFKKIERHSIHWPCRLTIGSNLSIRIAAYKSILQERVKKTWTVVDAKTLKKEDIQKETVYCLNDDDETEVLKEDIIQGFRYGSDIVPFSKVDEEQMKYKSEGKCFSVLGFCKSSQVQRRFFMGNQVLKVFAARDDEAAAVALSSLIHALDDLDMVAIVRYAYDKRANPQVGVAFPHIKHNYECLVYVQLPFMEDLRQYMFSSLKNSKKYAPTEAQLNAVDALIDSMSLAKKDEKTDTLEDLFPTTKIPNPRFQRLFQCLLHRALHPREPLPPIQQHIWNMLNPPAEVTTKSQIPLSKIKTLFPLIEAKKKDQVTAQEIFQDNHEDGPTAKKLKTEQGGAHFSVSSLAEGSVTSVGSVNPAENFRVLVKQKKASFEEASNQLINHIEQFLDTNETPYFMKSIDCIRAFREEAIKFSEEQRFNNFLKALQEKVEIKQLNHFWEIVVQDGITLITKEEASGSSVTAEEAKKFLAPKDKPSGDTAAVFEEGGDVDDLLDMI
Experimental: as §1

PDIA6 = molecular target: T5, PDIA6 (human, UniProt Q15084 20-440)
T5 construct: endogenous protein co-purified from WM115 lysate
T5 sequence (looked up): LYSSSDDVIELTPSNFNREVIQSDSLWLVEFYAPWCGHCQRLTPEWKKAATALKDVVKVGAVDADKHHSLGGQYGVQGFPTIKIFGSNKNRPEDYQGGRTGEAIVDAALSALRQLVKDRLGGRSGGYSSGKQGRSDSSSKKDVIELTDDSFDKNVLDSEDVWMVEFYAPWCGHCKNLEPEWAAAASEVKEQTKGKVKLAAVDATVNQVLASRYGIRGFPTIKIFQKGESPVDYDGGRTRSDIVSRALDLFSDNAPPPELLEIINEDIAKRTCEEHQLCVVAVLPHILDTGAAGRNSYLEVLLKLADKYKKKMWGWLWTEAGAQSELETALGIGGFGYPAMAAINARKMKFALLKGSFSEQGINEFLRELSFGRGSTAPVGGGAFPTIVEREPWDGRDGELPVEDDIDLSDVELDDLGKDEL
Experimental: as §1

ATP5B = molecular target: T6, ATP5B (human, UniProt P06576 48-529)
T6 construct: endogenous protein co-purified from WM115 lysate
T6 sequence (P06576 48-529 limits assumed): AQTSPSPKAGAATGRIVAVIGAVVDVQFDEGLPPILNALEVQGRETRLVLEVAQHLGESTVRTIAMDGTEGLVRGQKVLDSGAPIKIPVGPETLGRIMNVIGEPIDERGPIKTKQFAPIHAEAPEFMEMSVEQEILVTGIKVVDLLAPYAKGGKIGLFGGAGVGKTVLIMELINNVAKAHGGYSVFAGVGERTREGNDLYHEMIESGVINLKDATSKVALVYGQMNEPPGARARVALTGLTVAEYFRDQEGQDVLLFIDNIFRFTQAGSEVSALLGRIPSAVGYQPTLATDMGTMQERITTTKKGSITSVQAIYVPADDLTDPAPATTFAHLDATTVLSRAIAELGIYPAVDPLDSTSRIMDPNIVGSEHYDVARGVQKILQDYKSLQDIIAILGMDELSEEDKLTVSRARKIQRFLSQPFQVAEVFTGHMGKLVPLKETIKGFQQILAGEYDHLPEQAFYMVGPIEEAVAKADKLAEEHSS
Experimental: as §1

Measured: binding result

T1 sequence (P21333 2-2647 limits assumed): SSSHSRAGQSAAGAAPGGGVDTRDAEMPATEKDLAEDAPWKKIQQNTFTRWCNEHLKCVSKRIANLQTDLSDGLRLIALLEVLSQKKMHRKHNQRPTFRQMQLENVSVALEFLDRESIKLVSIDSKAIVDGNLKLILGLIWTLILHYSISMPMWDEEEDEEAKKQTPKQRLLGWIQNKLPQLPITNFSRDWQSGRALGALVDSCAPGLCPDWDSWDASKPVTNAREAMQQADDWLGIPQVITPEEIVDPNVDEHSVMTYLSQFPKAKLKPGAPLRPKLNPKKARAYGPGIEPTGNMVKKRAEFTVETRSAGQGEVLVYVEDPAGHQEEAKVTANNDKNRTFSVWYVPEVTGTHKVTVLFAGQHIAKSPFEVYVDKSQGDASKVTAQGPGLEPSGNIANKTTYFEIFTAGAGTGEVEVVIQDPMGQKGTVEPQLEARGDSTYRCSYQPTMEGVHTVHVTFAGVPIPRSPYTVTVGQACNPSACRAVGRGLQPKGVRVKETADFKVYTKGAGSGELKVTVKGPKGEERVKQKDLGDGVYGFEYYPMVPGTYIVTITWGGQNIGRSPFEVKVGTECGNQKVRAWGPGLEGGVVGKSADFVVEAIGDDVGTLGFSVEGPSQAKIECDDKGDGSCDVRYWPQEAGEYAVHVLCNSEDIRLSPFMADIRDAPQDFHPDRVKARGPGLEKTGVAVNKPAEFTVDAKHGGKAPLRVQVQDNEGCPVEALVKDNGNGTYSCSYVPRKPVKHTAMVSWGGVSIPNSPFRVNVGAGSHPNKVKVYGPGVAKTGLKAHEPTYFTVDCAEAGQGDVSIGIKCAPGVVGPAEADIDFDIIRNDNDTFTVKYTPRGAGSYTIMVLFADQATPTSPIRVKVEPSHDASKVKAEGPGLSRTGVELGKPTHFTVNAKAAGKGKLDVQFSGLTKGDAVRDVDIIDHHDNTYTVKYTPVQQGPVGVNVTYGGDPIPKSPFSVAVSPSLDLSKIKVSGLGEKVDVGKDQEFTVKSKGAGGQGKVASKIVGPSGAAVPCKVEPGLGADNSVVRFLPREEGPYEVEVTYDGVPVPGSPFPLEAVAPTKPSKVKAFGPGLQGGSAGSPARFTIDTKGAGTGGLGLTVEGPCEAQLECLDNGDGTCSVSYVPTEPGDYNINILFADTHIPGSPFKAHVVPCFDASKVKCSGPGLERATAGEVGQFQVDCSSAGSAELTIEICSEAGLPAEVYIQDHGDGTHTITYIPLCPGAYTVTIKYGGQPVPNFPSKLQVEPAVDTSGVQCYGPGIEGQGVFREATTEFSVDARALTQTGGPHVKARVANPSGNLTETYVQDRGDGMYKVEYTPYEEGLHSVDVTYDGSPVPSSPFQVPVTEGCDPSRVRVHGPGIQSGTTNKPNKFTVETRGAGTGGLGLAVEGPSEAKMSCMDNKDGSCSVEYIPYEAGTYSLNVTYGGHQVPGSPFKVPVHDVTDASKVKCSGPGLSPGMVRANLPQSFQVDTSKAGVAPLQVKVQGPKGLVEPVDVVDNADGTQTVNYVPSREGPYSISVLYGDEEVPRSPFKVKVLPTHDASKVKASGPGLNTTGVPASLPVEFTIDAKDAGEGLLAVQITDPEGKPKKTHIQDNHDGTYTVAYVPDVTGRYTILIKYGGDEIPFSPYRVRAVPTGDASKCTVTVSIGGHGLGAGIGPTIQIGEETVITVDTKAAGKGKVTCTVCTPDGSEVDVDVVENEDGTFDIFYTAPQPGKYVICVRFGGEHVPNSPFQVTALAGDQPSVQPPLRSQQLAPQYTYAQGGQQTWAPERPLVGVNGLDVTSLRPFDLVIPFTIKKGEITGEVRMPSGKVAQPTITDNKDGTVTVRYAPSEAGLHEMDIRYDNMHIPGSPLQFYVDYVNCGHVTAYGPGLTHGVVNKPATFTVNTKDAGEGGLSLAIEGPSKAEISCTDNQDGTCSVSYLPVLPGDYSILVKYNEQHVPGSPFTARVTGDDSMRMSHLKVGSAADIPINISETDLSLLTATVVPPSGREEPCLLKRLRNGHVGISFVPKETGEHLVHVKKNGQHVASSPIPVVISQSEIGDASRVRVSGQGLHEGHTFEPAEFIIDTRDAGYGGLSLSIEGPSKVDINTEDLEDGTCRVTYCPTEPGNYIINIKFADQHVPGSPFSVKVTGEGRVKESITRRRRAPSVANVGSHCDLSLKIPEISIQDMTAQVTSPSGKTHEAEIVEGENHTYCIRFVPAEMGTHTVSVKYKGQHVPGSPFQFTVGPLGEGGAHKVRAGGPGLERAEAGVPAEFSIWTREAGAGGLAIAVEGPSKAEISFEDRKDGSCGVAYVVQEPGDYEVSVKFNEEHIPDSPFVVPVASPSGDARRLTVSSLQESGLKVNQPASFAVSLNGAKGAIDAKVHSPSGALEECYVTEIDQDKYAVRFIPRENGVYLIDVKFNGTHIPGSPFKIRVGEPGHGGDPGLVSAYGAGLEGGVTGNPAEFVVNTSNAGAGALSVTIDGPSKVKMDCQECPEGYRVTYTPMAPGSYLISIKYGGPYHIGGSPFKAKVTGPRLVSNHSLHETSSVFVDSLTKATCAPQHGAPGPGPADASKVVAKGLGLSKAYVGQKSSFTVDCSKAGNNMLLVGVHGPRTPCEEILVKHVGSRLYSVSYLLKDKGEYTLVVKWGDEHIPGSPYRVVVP

B1: Flag-tagged SHARPIN (other, human, UniProt Q9H0F6 1-387, looked up)
chain: MAPPAGGAAAAASDLGSAAVLLAVHAAVRPLGAGPDAEAQLRRLQLSADPERPGRFRLELLGAGPGAVNLEWPLESVSYTIRGPTQHELQPPPGGPGTLSLHFLNPQEAQRWAVLVRGATVEGQNGSKSNSPPALGPEACPVSLPSPPEASTLKGPPPEADLPRSPGNLTEREELAGSLARAIAGGDEKGAAQVAAVLAQHRVALSVQLQEACFPPGPIRLQVTLEDAASAASAASSAHVALQVHPHCTVAALQEQVFSELGFPPAVQRWVIGRCLCVPERSLASYGVRQDGDPAFLYLLSAPREAPATGPSPQHPQKMDGELGRLFPPSLGLPPGPQPAASSLPSPLQPSWSCPSCTFINAPDRPGCEMCSTQRPCTWDPLAAAST
notes: also called Flag-SHARPIN; not shown: FLAG tag
binds: FLNA | [1] | [2] | XRCC5 | PDIA6 | ATP5B
